According to patent US20220168396A1, “MULTI-RECEPTOR AGONIST AND MEDICAL USE THEREOF” (published 2022):
Square brackets hold non-standard residues; d marks the D form. Ends that are not written are not given here. Aib = CC(C)(N)C(=O)O

B1: Compound No. 65 (peptide)
peptide: Y[Aib]EGTFTSDYSIYLEKEAAKEFIQWLLAGGPSSGAPPPS-NH2
modifications: N-terminus assumed
SMILES: CC[C@H](C)[C@H](NC(=O)[C@H](Cc1ccccc1)NC(=O)[C@H](CCC(=O)O)NC(=O)[C@H](CCCCN)NC(=O)[C@H](C)NC(=O)[C@H](C)NC(=O)[C@H](CCC(=O)O)NC(=O)[C@H](CCCCN)NC(=O)[C@H](CCC(=O)O)NC(=O)[C@H](CC(C)C)NC(=O)[C@H](Cc1ccc(O)cc1)NC(=O)[C@@H](NC(=O)[C@H](CO)NC(=O)[C@H](Cc1ccc(O)cc1)NC(=O)[C@H](CC(=O)O)NC(=O)[C@H](CO)NC(=O)[C@@H](NC(=O)[C@H](Cc1ccccc1)NC(=O)[C@@H](NC(=O)CNC(=O)[C@H](CCC(=O)O)NC(=O)C(C)(C)NC(=O)[C@@H](N)Cc1ccc(O)cc1)[C@@H](C)O)[C@@H](C)O)[C@@H](C)CC)C(=O)N[C@@H](CCC(N)=O)C(=O)N[C@@H](Cc1c[nH]c2ccccc12)C(=O)N[C@@H](CC(C)C)C(=O)N[C@@H](CC(C)C)C(=O)N[C@@H](C)C(=O)NCC(=O)NCC(=O)N1CCC[C@H]1C(=O)N[C@@H](CO)C(=O)N[C@@H](CO)C(=O)NCC(=O)N[C@@H](C)C(=O)N1CCC[C@H]1C(=O)N1CCC[C@H]1C(=O)N1CCC[C@H]1C(=O)N[C@@H](CO)C(N)=O
B2: Compound No. 66 (peptide)
peptide: Y[Aib]EGTFTSDYSIYLEKEAAKEFVAWLLAGGPSSGAPPPS-NH2
modifications: N-terminus assumed
SMILES: CC[C@H](C)[C@H](NC(=O)[C@H](CO)NC(=O)[C@H](Cc1ccc(O)cc1)NC(=O)[C@H](CC(=O)O)NC(=O)[C@H](CO)NC(=O)[C@@H](NC(=O)[C@H](Cc1ccccc1)NC(=O)[C@@H](NC(=O)CNC(=O)[C@H](CCC(=O)O)NC(=O)C(C)(C)NC(=O)[C@@H](N)Cc1ccc(O)cc1)[C@@H](C)O)[C@@H](C)O)C(=O)N[C@@H](Cc1ccc(O)cc1)C(=O)N[C@@H](CC(C)C)C(=O)N[C@@H](CCC(=O)O)C(=O)N[C@@H](CCCCN)C(=O)N[C@@H](CCC(=O)O)C(=O)N[C@@H](C)C(=O)N[C@@H](C)C(=O)N[C@@H](CCCCN)C(=O)N[C@@H](CCC(=O)O)C(=O)N[C@@H](Cc1ccccc1)C(=O)N[C@H](C(=O)N[C@@H](C)C(=O)N[C@@H](Cc1c[nH]c2ccccc12)C(=O)N[C@@H](CC(C)C)C(=O)N[C@@H](CC(C)C)C(=O)N[C@@H](C)C(=O)NCC(=O)NCC(=O)N1CCC[C@H]1C(=O)N[C@@H](CO)C(=O)N[C@@H](CO)C(=O)NCC(=O)N[C@@H](C)C(=O)N1CCC[C@H]1C(=O)N1CCC[C@H]1C(=O)N1CCC[C@H]1C(=O)N[C@@H](CO)C(N)=O)C(C)C
B3: Compound No. 63 (peptide)
peptide: Y[Aib]EGTFTSDYSIYLEKEAAKEFINWLLAGGPSSGAPPPS-NH2
modifications: N-terminus assumed
SMILES: CC[C@H](C)[C@H](NC(=O)[C@H](Cc1ccccc1)NC(=O)[C@H](CCC(=O)O)NC(=O)[C@H](CCCCN)NC(=O)[C@H](C)NC(=O)[C@H](C)NC(=O)[C@H](CCC(=O)O)NC(=O)[C@H](CCCCN)NC(=O)[C@H](CCC(=O)O)NC(=O)[C@H](CC(C)C)NC(=O)[C@H](Cc1ccc(O)cc1)NC(=O)[C@@H](NC(=O)[C@H](CO)NC(=O)[C@H](Cc1ccc(O)cc1)NC(=O)[C@H](CC(=O)O)NC(=O)[C@H](CO)NC(=O)[C@@H](NC(=O)[C@H](Cc1ccccc1)NC(=O)[C@@H](NC(=O)CNC(=O)[C@H](CCC(=O)O)NC(=O)C(C)(C)NC(=O)[C@@H](N)Cc1ccc(O)cc1)[C@@H](C)O)[C@@H](C)O)[C@@H](C)CC)C(=O)N[C@@H](CC(N)=O)C(=O)N[C@@H](Cc1c[nH]c2ccccc12)C(=O)N[C@@H](CC(C)C)C(=O)N[C@@H](CC(C)C)C(=O)N[C@@H](C)C(=O)NCC(=O)NCC(=O)N1CCC[C@H]1C(=O)N[C@@H](CO)C(=O)N[C@@H](CO)C(=O)NCC(=O)N[C@@H](C)C(=O)N1CCC[C@H]1C(=O)N1CCC[C@H]1C(=O)N1CCC[C@H]1C(=O)N[C@@H](CO)C(N)=O
B4: Compound No. 1 (peptide)
peptide: H[Aib]EGTFTSDVSSYLEEEAAKEFIAWLVRGGPSSGAPPPSK-NH2
modifications: N-terminus assumed
SMILES: CC[C@H](C)[C@H](NC(=O)[C@H](Cc1ccccc1)NC(=O)[C@H](CCC(=O)O)NC(=O)[C@H](CCCCN)NC(=O)[C@H](C)NC(=O)[C@H](C)NC(=O)[C@H](CCC(=O)O)NC(=O)[C@H](CCC(=O)O)NC(=O)[C@H](CCC(=O)O)NC(=O)[C@H](CC(C)C)NC(=O)[C@H](Cc1ccc(O)cc1)NC(=O)[C@H](CO)NC(=O)[C@H](CO)NC(=O)[C@@H](NC(=O)[C@H](CC(=O)O)NC(=O)[C@H](CO)NC(=O)[C@@H](NC(=O)[C@H](Cc1ccccc1)NC(=O)[C@@H](NC(=O)CNC(=O)[C@H](CCC(=O)O)NC(=O)C(C)(C)NC(=O)[C@@H](N)Cc1c[nH]cn1)[C@@H](C)O)[C@@H](C)O)C(C)C)C(=O)N[C@@H](C)C(=O)N[C@@H](Cc1c[nH]c2ccccc12)C(=O)N[C@@H](CC(C)C)C(=O)N[C@H](C(=O)N[C@@H](CCCNC(=N)N)C(=O)NCC(=O)NCC(=O)N1CCC[C@H]1C(=O)N[C@@H](CO)C(=O)N[C@@H](CO)C(=O)NCC(=O)N[C@@H](C)C(=O)N1CCC[C@H]1C(=O)N1CCC[C@H]1C(=O)N1CCC[C@H]1C(=O)N[C@@H](CO)C(=O)N[C@@H](CCCCN)C(N)=O)C(C)C
B5: Compound No. 24 (peptide)
peptide: Y[Aib]EGTFTSDYSIYLEKIAAQEFVNWLLAQKPSSGAPPPSK-NH2
modifications: N-terminus assumed
SMILES: CC[C@H](C)[C@H](NC(=O)[C@H](CCCCN)NC(=O)[C@H](CCC(=O)O)NC(=O)[C@H](CC(C)C)NC(=O)[C@H](Cc1ccc(O)cc1)NC(=O)[C@@H](NC(=O)[C@H](CO)NC(=O)[C@H](Cc1ccc(O)cc1)NC(=O)[C@H](CC(=O)O)NC(=O)[C@H](CO)NC(=O)[C@@H](NC(=O)[C@H](Cc1ccccc1)NC(=O)[C@@H](NC(=O)CNC(=O)[C@H](CCC(=O)O)NC(=O)C(C)(C)NC(=O)[C@@H](N)Cc1ccc(O)cc1)[C@@H](C)O)[C@@H](C)O)[C@@H](C)CC)C(=O)N[C@@H](C)C(=O)N[C@@H](C)C(=O)N[C@@H](CCC(N)=O)C(=O)N[C@@H](CCC(=O)O)C(=O)N[C@@H](Cc1ccccc1)C(=O)N[C@H](C(=O)N[C@@H](CC(N)=O)C(=O)N[C@@H](Cc1c[nH]c2ccccc12)C(=O)N[C@@H](CC(C)C)C(=O)N[C@@H](CC(C)C)C(=O)N[C@@H](C)C(=O)N[C@@H](CCC(N)=O)C(=O)N[C@@H](CCCCN)C(=O)N1CCC[C@H]1C(=O)N[C@@H](CO)C(=O)N[C@@H](CO)C(=O)NCC(=O)N[C@@H](C)C(=O)N1CCC[C@H]1C(=O)N1CCC[C@H]1C(=O)N1CCC[C@H]1C(=O)N[C@@H](CO)C(=O)N[C@@H](CCCCN)C(N)=O)C(C)C
B6: Compound No. 64 (peptide)
peptide: Y[Aib]EGTFTSDYSIYLEKEAAKEFVQWLLAGGPSSGAPPPS-NH2
modifications: N-terminus assumed
SMILES: CC[C@H](C)[C@H](NC(=O)[C@H](CO)NC(=O)[C@H](Cc1ccc(O)cc1)NC(=O)[C@H](CC(=O)O)NC(=O)[C@H](CO)NC(=O)[C@@H](NC(=O)[C@H](Cc1ccccc1)NC(=O)[C@@H](NC(=O)CNC(=O)[C@H](CCC(=O)O)NC(=O)C(C)(C)NC(=O)[C@@H](N)Cc1ccc(O)cc1)[C@@H](C)O)[C@@H](C)O)C(=O)N[C@@H](Cc1ccc(O)cc1)C(=O)N[C@@H](CC(C)C)C(=O)N[C@@H](CCC(=O)O)C(=O)N[C@@H](CCCCN)C(=O)N[C@@H](CCC(=O)O)C(=O)N[C@@H](C)C(=O)N[C@@H](C)C(=O)N[C@@H](CCCCN)C(=O)N[C@@H](CCC(=O)O)C(=O)N[C@@H](Cc1ccccc1)C(=O)N[C@H](C(=O)N[C@@H](CCC(N)=O)C(=O)N[C@@H](Cc1c[nH]c2ccccc12)C(=O)N[C@@H](CC(C)C)C(=O)N[C@@H](CC(C)C)C(=O)N[C@@H](C)C(=O)NCC(=O)NCC(=O)N1CCC[C@H]1C(=O)N[C@@H](CO)C(=O)N[C@@H](CO)C(=O)NCC(=O)N[C@@H](C)C(=O)N1CCC[C@H]1C(=O)N1CCC[C@H]1C(=O)N1CCC[C@H]1C(=O)N[C@@H](CO)C(N)=O)C(C)C
B7: Compound No. 69 (peptide)
peptide: Y[Aib]EGTFTSDVSIYLDKIAAQEFVNWLLAGGPSSGAPPPS-NH2
modifications: N-terminus assumed
SMILES: CC[C@H](C)[C@H](NC(=O)[C@H](CCCCN)NC(=O)[C@H](CC(=O)O)NC(=O)[C@H](CC(C)C)NC(=O)[C@H](Cc1ccc(O)cc1)NC(=O)[C@@H](NC(=O)[C@H](CO)NC(=O)[C@@H](NC(=O)[C@H](CC(=O)O)NC(=O)[C@H](CO)NC(=O)[C@@H](NC(=O)[C@H](Cc1ccccc1)NC(=O)[C@@H](NC(=O)CNC(=O)[C@H](CCC(=O)O)NC(=O)C(C)(C)NC(=O)[C@@H](N)Cc1ccc(O)cc1)[C@@H](C)O)[C@@H](C)O)C(C)C)[C@@H](C)CC)C(=O)N[C@@H](C)C(=O)N[C@@H](C)C(=O)N[C@@H](CCC(N)=O)C(=O)N[C@@H](CCC(=O)O)C(=O)N[C@@H](Cc1ccccc1)C(=O)N[C@H](C(=O)N[C@@H](CC(N)=O)C(=O)N[C@@H](Cc1c[nH]c2ccccc12)C(=O)N[C@@H](CC(C)C)C(=O)N[C@@H](CC(C)C)C(=O)N[C@@H](C)C(=O)NCC(=O)NCC(=O)N1CCC[C@H]1C(=O)N[C@@H](CO)C(=O)N[C@@H](CO)C(=O)NCC(=O)N[C@@H](C)C(=O)N1CCC[C@H]1C(=O)N1CCC[C@H]1C(=O)N1CCC[C@H]1C(=O)N[C@@H](CO)C(N)=O)C(C)C

Molecular target: T1, human glucose-dependent insulinotropic peptide receptor (human, UniProt P48546)
T1 sequence: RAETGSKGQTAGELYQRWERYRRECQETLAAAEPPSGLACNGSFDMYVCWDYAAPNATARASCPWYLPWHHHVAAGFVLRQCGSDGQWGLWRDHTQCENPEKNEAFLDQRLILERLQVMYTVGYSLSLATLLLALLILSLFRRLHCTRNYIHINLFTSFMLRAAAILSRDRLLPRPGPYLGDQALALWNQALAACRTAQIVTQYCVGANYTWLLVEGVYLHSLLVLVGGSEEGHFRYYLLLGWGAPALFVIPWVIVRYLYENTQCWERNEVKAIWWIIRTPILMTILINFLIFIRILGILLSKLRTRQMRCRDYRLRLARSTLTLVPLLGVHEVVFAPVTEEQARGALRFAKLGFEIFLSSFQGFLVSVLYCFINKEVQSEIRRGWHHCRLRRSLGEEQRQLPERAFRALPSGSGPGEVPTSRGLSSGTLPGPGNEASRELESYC
Assay: cell-based or functional assay

Binder | Activity for human GIPR (EC50 nM), cAMP HTRF
B1 | 0.027 nM
B2 | 0.054 nM
B3 | 0.02 nM
B4 | > 10 nM
B5 | 0.008 nM
B6 | 0.033 nM
B7 | 0.12 nM

Molecular target: human glucagon-like peptide-1 receptor (human, UniProt P43220)
Assay: cell-based or functional assay

Binder | Activity for human GLP-1R (EC50 nM), cAMP HTRF
B1 | 0.013 nM
B2 | 0.026 nM
B3 | 0.01 nM
B4 | 0.005 nM
B5 | 0.083 nM
B6 | 0.02 nM
B7 | 0.052 nM
